According to the supplement of paper PMC10567573:

B1: FAM189A2 (parent)
chain: GSEAAVIPLDLGCTQVTQDGDIPN
B2: ZNF263 (parent)
chain: QRTHTGEKPYKCPECGEIFAHSSN

Variants of: B1
Assay: protein stability index of a GFP-peptide fusion (GPS, HEK-293T) (PSI 1-6); higher = more stable
Settings: c terminus: a fixed tail appended
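Also: lentivirally expressed fusions sorted by FACS into six bins by GFP to DsRed ratio, PSI derived from sequencing read proportions per bin multiplied by bin number.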

Protein stability index of substitutions, site by site:
L9: R 5.22 | Y 5.31 | I 5.15 | C 5.5 | G 5.85 | T 5.5 | F 4.92 | N 5.55 | P 5.46 | E 5.41 | Q 5.69 | K 5.46 | M 5.6 | A 4.91 | D 5.48 | H 5.47 | S 5.7 | W 4.67 | V 5.42
E3: F 4.14 | M 4.45 | H 4.49 | C 4.83 | S 5.1 | Y 4.18 | V 4.49 | P 5.23 | Q 5.3 | W 2.96 | G 5.11 | I 3.58 | R 5.08 | L 4.54 | D 5.38 | K 5.35 | T 5.11 | N 5.1 | A 5.2
S2: T 5.01 | A 5.71 | Y 4.8 | L 4.77 | F 4.96 | C 5.49 | R 5.61 | M 4.89 | H 5.25 | Q 5.36 | G 5.03 | D 5.51 | K 4.64 | I 5.23 | V 4.85 | E 5.55 | N 5.52 | P 5.21 | W 3.93
D10: M 4.02 | Y 4.39 | I 3.7 | K 4.85 | V 4.48 | P 5.26 | Q 4.92 | N 5.14 | C 4.38 | G 5.29 | A 5.39 | S 5.15 | L 4.2 | F 3.9 | H 5.26 | R 5.07 | W 4.02 | T 5.34 | E 5.18
L11: C 5.25 | K 5.6 | I 5.11 | H 5.75 | E 5.02 | A 5.54 | D 5.77 | F 5.39 | G 5.6
G1: L 5.43 | A 5.53 | K 5.25 | H 5.29 | Y 4.26 | M 5.33 | E 5.05 | W 4.31 | V 5.2 | R 5.24 | P 5.38 | Q 5.44 | D 5.34 | F 4.84 | C 4.75 | S 5.22 | I 4.68 | T 5.58 | N 5.46
A5: C 4.9 | K 5.19 | D 5.74 | L 4.57 | F 4.64 | G 5.36 | I 3.79 | P 5.68 | E 5.13 | N 5.17 | T 5.43 | V 5.08 | S 5.51 | H 5.2 | M 5.01 | W 3.95 | Y 4.15 | R 5.2 | Q 5.1
I7: H 5.23 | S 5.58 | C 5.04 | A 5.57 | N 5.66 | W 4.79 | K 5.23 | Y 5.32 | G 5.6 | V 5.23 | F 4.96 | D 5.93 | E 5.78 | L 4.86 | Q 5.24 | R 4.98 | M 5.24 | P 5.47 | T 5.67
P8: C 4.03 | M 3.41 | E 4.85 | Q 4.22 | R 4.53 | F 2.34 | V 2.54 | I 1.87 | T 4.42 | A 4.68 | S 4.46 | H 4.74 | N 5.16 | D 4.97 | K 5 | W 2 | Y 2.83 | L 2.65 | G 5.18
V6: Q 5.33 | M 5.25 | K 5.71 | D 5.63 | R 5.57 | H 5.51 | W 4.92 | G 5.33 | C 5.43 | I 5.25 | S 5.58 | L 5.16 | T 5.58 | F 4.91 | P 5.76 | N 5.44 | E 5.65 | Y 5.35 | A 5.5
A4: K 5.49 | L 5.34 | H 4.7 | D 5.61 | T 5.27 | E 5.57 | N 5.58 | G 5.29 | P 5.53 | F 4.44 | C 4.74 | M 4.81 | W 4.53 | V 4.97 | Q 5.36 | S 5.24 | I 4.37 | R 5.4 | Y 4.79

Variants of: B2
Assay: as above
Settings: c terminus: a fixed tail appended

Protein stability index, by site and new letter:
Q1: V 2.85 | R 2.97 | W 2.01 | A 2.49 | L 2.76 | F 2.74 | K 2.72
I18: C 3.87 | V 3.56
F19: D 4.87 | E 4.25 | M 3.56 | G 4.28 | A 4.38 | S 3.84
C15: K 4.75 | V 4.42 | D 4.8 | W 3.88 | T 4.63 | H 4.09 | R 4.29 | L 3.97
E7: Y 2.36 | Q 3.16 | H 3.44 | D 3.08 | W 2.03 | A 2.65
H21: N 2.86 | C 3.5 | F 2.74 | E 3.21 | W 1.95
E14: V 2.95 | L 2.34 | D 3.1 | Y 2.97 | F 3.09
C12: P 4.42 | S 4.52 | F 4.12 | H 4.13 | E 4.53
K11: P 4.12 | Q 3.13 | H 3.39 | C 3.62 | F 3.23 | Y 3.03 | E 3.99
S23: G 3.23 | Q 3.31 | V 2.71 | I 3.24 | D 3.5
G6: N 2.85 | R 2.51 | M 3.04 | C 4.26 | F 2.79 | A 3.27 | L 3.27
P13: E 4.69 | T 3.34 | M 2.71 | F 2.52 | C 3.1
N24: D 3.88 | T 3.54 | P 2.61 | F 2.74 | C 5.06 | E 3.15
P9: V 3.5 | G 3.58 | D 3.68 | C 3.53 | H 3.78
E17: G 2.53 | K 3.98 | Q 3.86 | P 3.72 | T 4.77
K8: S 3.36 | E 3.82 | T 3.28 | N 3.46 | C 5.15 | P 3.4
Y10: Q 3.5 | R 3.79 | F 3.25
T3: R 2.85 | K 3.28 | V 3.04 | P 3.37 | W 2.53 | Y 2.58
G16: Q 3.23 | V 3.61 | C 2.84 | I 2.67 | N 3.09 | R 3 | D 3.9 | A 3.54 | K 3.27 | L 3.22 | S 3.14
H4: A 2.92 | F 3.37 | N 3.28 | K 3.77 | W 3.08
R2: D 4.06 | N 4.07 | W 2.9 | G 4.29 | S 3.88
S22: N 3.38 | T 2.92 | H 3.87 | Y 2.71
A20: P 3.53 | S 3.83 | Q 3.59 | E 3.76 | I 3.46 | G 3.16 | T 3.11
T5: N 3.57 | R 2.27 | E 2.89 | Y 3.11
